In patent US5654398, “Compositions and methods for inhibiting replication of human immunodeficiency virus-1” (The Regents of the University of California):

Biological target: Rev34-50 peptide I (free N- and C-termini) (HIV-1)
Assay: EMSA; apparent nonspecific Kd with tRNA, 4 C
Details: protein: synthetic; tags: synthetic peptide, unmodified termini; label: 32P; stem-loop with internal bulge

## GGCUGGUAUCGGCGCAGCGUCAAUGACGCUGACGGUAGAGGCCAGCC (ssRNA, [10,38]) [RRE IIB C46-G74 mutant]
  Kd: 3 µM
